The record followed here is article doi:10.1101/2021.12.02.470928 (2021).

B5: PNUTS(1-148), PNUTS amino-terminal domain (PAD) (domain or fragment)
chain: MGSGPIDPKELLKGLDSFLNRDGEVKSVDGISKIFSLMKEARKMVSRCTYLNILLQTRSPEILVKFIDVGGYKLLNNWLTYSKTTNNIPLLQQILLTLQHLPLTVDHLKQNNTAKLVKQLSKSSEDEELRKLASVLVSDWMAVIRSQS

Common to all, as to experiment: BLI
Background: Biolayer interferometry detects binding as a change in optical thickness at a sensor tip.

For assay [1], the target named is B5.
Assay [2] deals with MYC(1-88)-Q20A.
For assay [3], the target named is MYC(1-88)-V19A.
The target in assay [4] is MYC(1-88 Q20A).
The target in assay [5] is MYC(1-88 V19A).

B1: biotinylated MYC(1-88 F23A) (domain or fragment)
chain: MPLNVSFTNRNYDLDYDSVQPYAYCDEEENFYQQQQQSELQPPAPSEDIWKKFELLPTPPLSPSRRSGLCSPSYVAVTPFSLRGDNDG
modifications: biotin on the C-terminal AVI tag
What is called Kd is the equilibrium constant for the complex coming apart. A higher Kd goes with a looser complex. Consider B1, for which the dissociation constant Kd in assay [1] is 19 µM.

B2: biotinylated MYC(1-88 Y22A) (domain or fragment)
chain: MPLNVSFTNRNYDLDYDSVQPAFYCDEEENFYQQQQQSELQPPAPSEDIWKKFELLPTPPLSPSRRSGLCSPSYVAVTPFSLRGDNDG
modifications: biotin on the C-terminal AVI tag
Consider B2, for which, in assay [1], binding was characterised by a dissociation constant (Kd) of 24 µM.

B3: biotinylated MYC(1-88 P21A) (domain or fragment)
chain: MPLNVSFTNRNYDLDYDSVQAYFYCDEEENFYQQQQQSELQPPAPSEDIWKKFELLPTPPLSPSRRSGLCSPSYVAVTPFSLRGDNDG
modifications: biotin on the C-terminal AVI tag
As to B3, the Kd in assay [1] was determined as 19 µM.

B4: biotinylated MYC(1-88 Y24A) (domain or fragment)
chain: MPLNVSFTNRNYDLDYDSVQPYFACDEEENFYQQQQQSELQPPAPSEDIWKKFELLPTPPLSPSRRSGLCSPSYVAVTPFSLRGDNDG
modifications: biotin on the C-terminal AVI tag
With B4, the Kd in assay [1] was 37 µM.
For B5, the Kd was 5.3 µM in assay [2], 8.4 µM in assay [3], 5.3 µM in assay [4] and 8.4 µM in assay [5].
